Results taken from patent US11104673B2, “Quaternary amine compounds and antibody-drug conjugates thereof” (priority 2014, dated 2021).

What was measured:
WSU-DLCL2 = test: In vitro cell proliferation assay, ADC killing of WSU-DLCL2 cells; type: cell-based, human
BJAB = test: In vitro cell proliferation assay, ADC killing of BJAB cells; type: cell-based, human
NCI-H441 = test: EdU Prolif assay, NCI-H441; type: cell-based; settings: NCI-H441 cells
Jurkat = test: In vitro cell proliferation assay, ADC killing of Jurkat cells; type: cell-based

B1: ADC1-1: Anti-Napi2b 10H1.11.4B LC K149C antibody conjugated with the Example 1 linker-drug MC-Sq-Cit-PAB Dolastatin 10 (conjugate)
VH: EVQLVESGGGLVQPGGSLRLSCAASGFSFSDFAMSWVRQAPGKGLEWVATIGRVAFHTYYPDSMKGRFTISRDNSKNTLYLQMNSLRAEDTAVYYCARHRGFDVGHFDFWGQGTLVTVSS
VL: DIQMTQSPSSLSASVGDRVTITCRSSETLVHSSGNTYLEWYQQKPGKAPKLLIYRVSNRFSGVPSRFSGSGSGTDFTLTISSLQPEDFATYYCFQGSFNPLTFGQGTKVEIKR
IC50 (WSU-DLCL2): 44.2 nM | WSU-DLCL2 IC50 (WSU-DLCL2): 6.63 µg/mL | BJAB IC50 (BJAB): >20 µg/mL | IC50 (BJAB): > 133 nM | IC50 (NCI-H441): 95.4 nM | NCI-H441 IC50 (NCI-H441): 14.31 µg/mL | IC50 (Jurkat): 73.6 nM | Jurkat IC50 (Jurkat): 11.04 µg/mL
